Laboratory results published in paper PMC7472415 (Viruses, 2020).

Columns and labels:
[1] = molecular target: YFP-D/NP_TAIL, yellow fluorescent protein fused to the nucleoprotein tail of D/bovine/France/2986/20 (influenza D virus D/bovine/France/2986/2012); experiment: SPR
[2] = molecular target: importin-α7 (Homo sapiens) (UniProt O60684); settings: cited from earlier work
[3] = molecular target: T1, human importin-α3 without its importin-β binding (IBB) domain (residues 64 to 521) (human, UniProt O00629 64-521); experiment: SPR; settings: both partners purified
T1 construct: also called ΔIBB importin-α3; Imp-α3
T1 sequence (looked up): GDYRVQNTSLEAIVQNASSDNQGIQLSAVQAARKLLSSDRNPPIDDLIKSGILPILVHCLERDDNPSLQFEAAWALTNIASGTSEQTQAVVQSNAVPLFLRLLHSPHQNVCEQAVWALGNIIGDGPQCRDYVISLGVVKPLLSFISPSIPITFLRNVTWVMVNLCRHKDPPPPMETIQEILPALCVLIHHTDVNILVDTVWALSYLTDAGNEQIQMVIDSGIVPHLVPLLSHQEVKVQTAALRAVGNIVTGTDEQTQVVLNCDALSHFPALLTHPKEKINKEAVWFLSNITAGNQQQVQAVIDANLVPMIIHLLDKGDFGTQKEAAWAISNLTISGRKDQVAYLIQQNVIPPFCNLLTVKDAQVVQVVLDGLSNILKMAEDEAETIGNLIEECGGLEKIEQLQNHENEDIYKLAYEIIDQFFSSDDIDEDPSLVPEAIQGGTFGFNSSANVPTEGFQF

[4] = molecular target: T2, human importin-α7 without its importin-β binding (IBB) domain (residues 58 to 536) (human, UniProt O60684 58-536); experiment: SPR; settings: both partners purified
T2 construct: also called ΔIBB importin-α7; Imp-α7

[5] = molecular target: T3, human importin-α5 without its importin-β binding (IBB) domain (residues 66 to 538) (human, UniProt P52294 66-538); experiment: SPR; settings: both partners purified
T3 construct: also called ΔIBB importin-α5; Imp-α5

[6] = molecular target: T1, human importin-α3 without its …; experiment: SPR; settings: both partners purified; remark: listed apart in the source
[7] = molecular target: T2, human importin-α7 without its …; experiment: SPR; settings: both partners purified; remark: listed apart in the source
[8] = molecular target: T3, human importin-α5 without its …; experiment: SPR; settings: both partners purified; remark: listed apart in the source

T2 sequence (O60684 58-536): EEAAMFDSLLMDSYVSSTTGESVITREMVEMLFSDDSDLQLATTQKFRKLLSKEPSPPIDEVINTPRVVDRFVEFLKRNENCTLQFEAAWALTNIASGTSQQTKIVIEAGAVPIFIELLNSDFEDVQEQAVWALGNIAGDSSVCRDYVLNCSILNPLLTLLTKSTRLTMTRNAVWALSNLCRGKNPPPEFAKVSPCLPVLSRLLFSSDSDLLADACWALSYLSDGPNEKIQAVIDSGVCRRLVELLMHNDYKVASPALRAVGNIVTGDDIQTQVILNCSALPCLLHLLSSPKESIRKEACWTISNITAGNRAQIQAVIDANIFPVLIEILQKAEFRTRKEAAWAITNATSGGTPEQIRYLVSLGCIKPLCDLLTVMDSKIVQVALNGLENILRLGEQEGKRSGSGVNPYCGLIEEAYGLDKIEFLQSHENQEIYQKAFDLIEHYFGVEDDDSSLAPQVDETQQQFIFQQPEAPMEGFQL
T3 sequence (P52294 66-538): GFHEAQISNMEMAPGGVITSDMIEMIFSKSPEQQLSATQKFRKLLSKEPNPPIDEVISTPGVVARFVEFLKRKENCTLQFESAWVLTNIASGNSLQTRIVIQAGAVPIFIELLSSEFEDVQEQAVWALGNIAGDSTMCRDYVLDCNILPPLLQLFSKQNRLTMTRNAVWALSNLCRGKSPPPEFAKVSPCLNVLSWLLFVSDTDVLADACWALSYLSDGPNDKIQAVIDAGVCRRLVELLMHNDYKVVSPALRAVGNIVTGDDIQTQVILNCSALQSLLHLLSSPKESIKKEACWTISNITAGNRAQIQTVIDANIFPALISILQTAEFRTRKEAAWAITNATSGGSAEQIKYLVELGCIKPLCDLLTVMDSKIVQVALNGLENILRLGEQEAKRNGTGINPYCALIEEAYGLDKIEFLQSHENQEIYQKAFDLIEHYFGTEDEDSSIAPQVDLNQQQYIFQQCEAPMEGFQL

human importin-α3 without its importin-β binding (IBB) domain (residues 64 to 521) (from UniProt O00629 64-521) (domain or fragment)
Kd [1]: 22 nM
koff [1]: 0.007 s⁻¹
kon [1]: 2.8e+06 M⁻¹ s⁻¹

human importin-α5 without its importin-β binding (IBB) domain (residues 66 to 538) (from UniProt P52294 66-538) (domain or fragment)
Kd [1]: 21 nM
koff [1]: 0.5 s⁻¹
kon [1]: 1.1e+06 M⁻¹ s⁻¹

human importin-α7 without its importin-β binding (IBB) domain (residues 58 to 536) (from UniProt O60684 58-536) (domain or fragment)
Kd [1]: 29 nM
koff [1]: 0.104 s⁻¹
kon [1]: 5e+06 M⁻¹ s⁻¹

influenza B nucleoprotein NPTAIL (30-71) (from UniProt P13885)
Kd [2]: 844 nM

B1: B/NP_TAIL-YFP, nucleoprotein tail of B/Memphis/13/03 (residues 1 to 71) fused to yellow fluorescent (domain or fragment)
chain: MSNMDIDGINTGTIDKTPEEITSGTSGTTRPIIRPATLAPPSNKRTRNPSPERATTSSEADVGRKTQKKQT
Kd [3]: 308 ± 106 nM
Kd [4]: 405 ± 5 nM
Kd [5]: 770 ± 24 nM
koff [6]: > 1 s⁻¹
kon [6]: > 1e+07 M⁻¹ s⁻¹
koff [7]: > 1 s⁻¹
kon [7]: > 1e+07 M⁻¹ s⁻¹
koff [8]: > 1 s⁻¹
kon [8]: > 1e+07 M⁻¹ s⁻¹
